Test results taken from the supplement of paper PMC9170038.

Test system: MS2 coat protein
Assay: apparent KD of MS2 coat protein; designed switch direction (-1 OFF switch, 1 ON switch): -1; higher = weaker reporter binding
How it was run: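 On Illumina chips, designed RNA switches with common flanks were made by stalled E. coli RNA polymerase. Titrations with SNAP-549-labelled MS2 coat protein, doubling from 0.7 or 1.5 nM to 3 µM, were done with no input, with 200 uM small-molecule ligand, or with an oligonucleotide input. Apparent KD is the median per design over clusters, from curve fits of normalised cluster fluorescence.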

[1] = Eterna round: R95, input ligand: microRNA oligo, concentration not stated
[2] = input ligand: microRNA oligo, concentration not stated
[3] = Eterna round: R95, input ligand: FMN 200 uM
[4] = Eterna round: R95, input ligand: none

Row | Sequence | apparent KD of MS2 coat protein (input ligand: FMN 200 uM) | apparent KD of MS2 coat protein (input ligand: none) | apparent KD of MS2 coat protein [1] | further results
1 | CUCAUUUGUCAGGAUAUCGUGUGGCUAAUUGUACGAGAAGGGACGACAUGAGGAUCACCCAUGUGGUCUUUGAG [JR_Ex6_Sub083] (Eterna round: R97, puzzle: Exclusion 6) | 196 nM | 54.8 nM |  | 
2 | UGUCUGUCAGGAUAUCCAGAAGAGAAGAAAGUAAGAUGAGUGGAGAAGGGACAUGAGGAUCACCCAUGUAAUUA [My frist] (puzzle: Exclusion 4) |  |  | 29.7 nM | 
3 | ACAUGAGGAUCACCCAUGUGACCACGAUGGCUGAUGUAAAGACAGGAUAUGUGUGAAUAUCUAACACAGAAGGGUCUUGACUGG [Deportation 56 - Jieux - Exclusion NG 3] (Eterna round: R96, puzzle: Exclusion NG 3) | 33.8 nM | 33.2 nM |  | apparent KD of MS2 coat protein [2]: 32.6 nM
4 | ACGUGAUAUCUGUCGGUGGACAUGAGGAUCACCCAUGUGAGCUUUUUGCUCGUCUUGUAACCCGGUGACAGACCUUC [Encetia] (puzzle: Sensor v3, turn-off variant 1) |  |  | 213 nM | apparent KD of MS2 coat protein [3]: 22.4 nM; apparent KD of MS2 coat protein [4]: 22.3 nM
5 | GGUGCGUAUGUGAGGAUAUGCUGGUCCUUGGGUCGGCAGAAGGCACAUGAGGAUCACCCAUGUGGUGUCGUUCC [salish99_Bmod_ex4_101] (puzzle: Brourd's mod of Exclusion 4) |  |  | 68 nM | 
6 | AGUGAACAUGAGGAUCACCCAUGUUAGGAUAUGUAUAAUCGACGAGCCUUUUCGUCGGGCAGAAGGGAUGGUGA [Eternabot (L2) Solution 95] (Eterna round: R97, puzzle: Exclusion 1) | 44.7 nM | 41.6 nM |  | 
7 | UUUUAACAUGAGGAUCACCCAUGUGAGGAUAUCGAAAUUUAUAUUUAUAUUAAUAUUUCGAGAAGGCACAUUUU [JMF 81] (puzzle: Exclusion 1) |  |  | 176 nM | 
8 | UUCAUGUGAGGAUAUGUGUACUGUUUUUUGUUUAGAUGUACACAGAAGGCACAUGAGGAUCACCCAUGUAGUAC [Ex4 - 3 - 32] (puzzle: Exclusion 4) |  |  | 30 nM | 
9 | CUAGGUCGAGGAUAUACAUGAGGAUCACCCAUGUCGGUUCCAUGAGAGCUAGACACUAGUAGAAGGCGGUAGGC [Eternabot (L2) Solution 60] (Eterna round: R97, puzzle: Exclusion 3) | 26.1 nM | 27.8 nM |  | 
10 | CGCUGGACAGGAUAUGUUCUUGGGCACUUGAGGAUCACCCAAGUCAUCGGGACAUCAGGCACAGAAGGGUUUUUGG [salish99_ex5_r4_027] (Eterna round: R97, puzzle: Exclusion 5) | 18 nM | 20.5 nM |  | 
11 | UAUUCGCGAGGAUAUGCAUUCGAGUCCAUUACGUGUCUGGGACUUGAGGAUCACCCAAGUAGAAGGCGUCUCAU [salish99_ex2_r4_643] (Eterna round: R97, puzzle: Exclusion 2) | 99.7 nM | 145 nM |  | 
12 | GAAAAGAAAGGAUAUACAGGGAAAUGAACCGCACGUAAACCACAUGAGGAUCACCCAUGUAGAAGGUUCAGUGC [Edenusra] (puzzle: Exclusion 2) |  |  | 10.6 nM | 
13 | AGACGUUAACAGGAUAUGGCCCUGCCGCAAGCGUUAGAAGGGUUGACAUGAGGAUCACCCAUGUGUGAUAGAAG [Eternabot (L1) Solution 95] (Eterna round: R97, puzzle: Exclusion 6) | 217 nM | 316 nM |  | 
14 | CCGCUGCAAGGAUAUACUUGCGGUGAUGUUCGAGUUCUUCUACUUGAGGAUCACCCAAGUAGAAGGUGCAAAAC [jl-ex2.4.58 ViennaUCT mod] (Eterna round: R97, puzzle: Exclusion 2) | 19.2 nM | 19.3 nM |  | 
15 | AGAUCUUCCGUAAGGAUAUGUGUGAAACAGACGGCACAGAAGGUACAUGAGGAUCACCCAUGUUACGCCGCGUA [Eternabot (L1) Solution 85] (Eterna round: R97, puzzle: Brourd's mod of Exclusion 4) | 62.3 nM | 19.1 nM |  | 
16 | UAUUUAGCAAGCAGAUCCCACAUGAGGAUCACCCAUGUUUUCUGAAUGUACAGAAUUACUGUACUUGCUCGUCUUAU [Winner reversed engineered 36] (Eterna round: R97, puzzle: Sensor, turn-off variant 1) | 76.2 nM | 82.6 nM |  | 
17 | AGAAAUGCCCAUGGCCACAAGCUUUUUGCUUAUCUUACCACAUGAGGAUCACCCAUGUGACAUGGGCUCCUGAUAAU [Teedor] (puzzle: Sensor v3, turn-off variant 2) |  |  | 19.4 nM | apparent KD of MS2 coat protein [3]: 18.5 nM; apparent KD of MS2 coat protein [4]: 17.1 nM
18 | AUGGACGCAGGAUAUACAUGAGGAUCACCCAUGUGAGGUUGGUAAGUAGGAAGUGAAGGUAGAAGGGCGAGAGA [JR_Exclu3_Sub097] (puzzle: Exclusion 3) |  |  | 74.8 nM | apparent KD of MS2 coat protein [3]: 107 nM; apparent KD of MS2 coat protein [4]: 84.3 nM
19 | CAUUAUUAUCGAGGAUAUCCUAUUGUAAUUCUGGGAGAAGGCGGACUCAACAUGAGGAUCACCCAUGUAAGACGGGUACUAGAU [Ex NG1 #21] (Eterna round: R96, puzzle: Exclusion NG 1) | 69.5 nM | 92 nM |  | apparent KD of MS2 coat protein [2]: 61 nM
20 | AAUAAUAGCGAGGAUAUCGUAUCGGAAACGAUACGAGAAGGCGUAACAUGAGGAUCACCCAUGUUCCUCAAUAA [Fiskers Ex 6 - 3] (Eterna round: R96, puzzle: Exclusion 6) | 354 nM | 41 nM |  | apparent KD of MS2 coat protein [2]: 39.8 nM
21 | UGCGUUCAAGGAUAUACAUGAGGAUCACCCAUGUGGAUGGCCGUUGUGUGAACACUUAGUAGAAGGUGACACGG [Eternabot (L2) Solution 5] (Eterna round: R97, puzzle: Exclusion 3) | 51.8 nM | 71.2 nM |  | 
22 | AGCGGUGUUCAGGAUAUCUGGUUAUGACACAUGAGAGAAGGGAGCACAUGAGGAUCACCCAUGUGACCUUCGCG [Eternabot (Original) Solution 23] (Eterna round: R97, puzzle: Exclusion 6) | 16 nM | 15.5 nM |  | 
23 | UAUUAAACAAGCAGGUCCCACAUGAGGAUCACCCAUGUGCUCGUCUUAUAAGGUACUGUGACGAAAGUCACGGUACC [Elimod 16 - Jieux - Sensor, turn-off variant 1] (Eterna round: R97, puzzle: Sensor, turn-off variant 1) | 37.2 nM | 40.1 nM |  | 
24 | AUCUUGUCAGGAUAUCUGACAAGUGACUUCGGUCACAGUUCAGAGAAGGUACAUGAGGAUCACCCAUGUAGAAC [Ex4-3: 39] (puzzle: Exclusion 4) |  |  | 17.9 nM | 
25 | UUCCUACUUGAGGAUCACCCAAGUCAGGAUAUCCAUAACCGACACUCUUUUCGGAGCGGGAGAAGGGACUUGGC [Arbedi] (Eterna round: R97, puzzle: Exclusion 1) | 119 nM | 52.9 nM |  | 
26 | GAAAAGGUAGGAUAUACGAAAAAAAAGGGUAGAAAAAAGACACAUGAGGAUCACCCAUGUAGAAGGACCAAAAG [salish99_ex2_r3_019] (puzzle: Exclusion 2) |  |  | 21.7 nM | apparent KD of MS2 coat protein [3]: 62.5 nM; apparent KD of MS2 coat protein [4]: 30.3 nM
